Measured values: US11312781B2, “Antigen binding molecules that bind LIGHT” (Capella Bioscience Ltd., priority 2018, dated 2022)

Legend:
Assay in all cases: Alanine scanning mutagenesis of membrane LIGHT and flow cytometry (HEK293FF cells)
Format in all cases: binding
[1] = molecular target: T1, wild type and mutated membrane LIGHT (Homo sapiens, UniProt O43557, T191A); details: aa mutation T191A, SEQ ID NO. 138
T1 construct: The full length LIGHT gene was synthesized by GeneArt (ThermoFisher Scientific); expressed in transfected cells; host or cells: HEK293FF, transient, pcDNA 3.1(+)
T1 sequence (O43557 whole entry T191A): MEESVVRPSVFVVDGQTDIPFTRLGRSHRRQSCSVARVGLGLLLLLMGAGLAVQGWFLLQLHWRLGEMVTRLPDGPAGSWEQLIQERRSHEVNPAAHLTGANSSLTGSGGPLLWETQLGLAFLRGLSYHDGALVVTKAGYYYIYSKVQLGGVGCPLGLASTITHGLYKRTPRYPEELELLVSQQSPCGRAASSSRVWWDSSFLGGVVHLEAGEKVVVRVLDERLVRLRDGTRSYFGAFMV
Source text: (§1) The full length LIGHT gene was synthesized by GeneArt (ThermoFisher Scientific) and cloned into the mammalian expression vector pcDNA 3.1(+). The following Ala mutations were introduced into the LIGHT gene: 30 single amino acid alanine substitutions from F57A to E86A; 2 single amino acid alanine substitutions; G188A, R189A; one serine substitution, A190S; 17 single amino acid alanine substitutions; T191A to V207A and 10 four amino acid alanine substitutions, 60-63, 64-67, 68-71, 72-75, 76-79, 80-83, 84-87, 88-91, 92-95 and 96-99. Constructs were reconstituted according to manufacture instructions, using DEPC-treated and sterile filtered water. Competent TOP10 E. coli cells were transformed with 100 ng of each construct and a single colony from each construct was picked and used to inoculate 10 ml of LB/carb100/glu2% medium and grown overnight at 37° C., 200 rpm. The extraction of the construct DNA was performed using the Qiagen QIAprep Spin Miniprep Kit (250) and the concentration was determined by measuring the O.D. at 260 nm in a spectrophotometer.
(§2) HEK293FF cells were cultured in Freestyle™293 expression medium (ThermoFisher scientific cat. no. 12338018) supplemented with 2 mM L-Glutamine. The day of transfection the cells were seeded in a 24-well plate at 0.6×10^6 cells/well. Lipofectamine 2000 (ThermoFisher scientific), 3 μl, was mixed with 50 μl OptiMEM medium (GIBCO) and then added to 50 μl Opti-MEM medium containing 3 ug plasmid DNA and incubated for 20 min at RT to form DNA-Lipofectamine 2000 complexes which were then added to the HEK293FF cells and incubated at 37° C., 5% CO2 for 24 hours. For each construct, in duplicate, 0.60×10^6 cells/well were used in a 96 well round bottom plate. Cells were centrifuged for 3 minutes at 300×g at 4° C., the supernatant discarded and the cells washed with 150 μl FACS buffer (0.5% FBS in phosphate buffered saline). This process was repeated 3 times. For each construct, […] cells/well were incubated with anti-LIGHT antibodies at the EC50 concentration and with positive controls of anti-LIGHT mAb MAB664 (R&D Systems), mAb F19 (EP2292663) or LTBR-Fc (R&D Systems), in a final volume of 50 μl/well for 30 min at 4° C., with shaking. The wells were washed 3 times as above and 50 μl/well of goat anti-human IgG FITC (1:1500 dilution in FACS buffer, SIGMA F9512-2ML) or goat anti-mouse APC (1/500 dilution in FACS buffer, BDBioscience 550826), as appropriate, was added to the wells and incubated for 30 min at 4° C. protected from the light, with shaking. The cells were then washed as above, resuspended in 100 μl of FACS buffer and binding of the antibodies to the constructs was measured using flow cytometry and a total of 10,000 cells were acquired for each sample. Controls of buffer and secondary antibody only as well as HEK293FF non transfected cells were also used.
(§3) All of the mAbs of this invention show a similar profile in that their epitope is located at amino acids 188-197 of LIGHT. […] The epitope of the mAbs of this invention defined by alanine scanning mutagenesis are residues 188-197 of LIGHT. This is visually depicted in FIG. 8 utilising a 3D visualisation of the LIGHT trimer from the crystal structure of LIGHT from Liu et al. (Structure 22: 1252-62; 2014). This would result in the mAbs binding to the “tip” of the LIGHT trimer and explaining the 1:1 binding. The impact of this epitope would result in […] less dosing of mAb 3B04 being required to neutralise membrane LIGHT compared to, for example, mAbs F19 and F23 (of EP2292663) which bind both soluble and membrane LIGHT equally and bind LIGHT in the ratio 3:1.

[2] = molecular target: T2, wild type and mutated membrane LIGHT (Homo sapiens, UniProt O43557, V196A); details: aa mutation V196A, SEQ ID NO. 143
T2 construct: The full length LIGHT gene was synthesized by GeneArt (ThermoFisher Scientific); expressed in transfected cells; host or cells: HEK293FF, transient, pcDNA 3.1(+)
T2 sequence (O43557 whole entry V196A): as the sequence (O43557 whole entry T191A) above, with A191T, V196A counted along it
Source text: as §1, §2, §3

[3] = molecular target: T3, wild type and mutated membrane LIGHT (Homo sapiens, UniProt O43557, W198A); details: aa mutation W198A, SEQ ID NO. 145
T3 construct: The full length LIGHT gene was synthesized by GeneArt (ThermoFisher Scientific); expressed in transfected cells; host or cells: HEK293FF, transient, pcDNA 3.1(+)
T3 sequence (O43557 whole entry W198A): as the sequence (O43557 whole entry T191A) above, with A191T, W198A counted along it
Source text: as §1, §2, §3

B1: 3D12: parental mouse anti-membrane LIGHT antibody, VL SEQ ID NO 41, VH SEQ ID NO 45; tested as chimeric human IgG4 mAb (antibody, listed as Homo sapiens, V domains shown)
VH: QVQLQQPGAELVRPGASVTLSCKASDYTFTDSEIHWVKQTPVHGLEWIGEIDPETGGTAYNQKFKGKATLTADKSSSTAYMELRSLTSEDSAVYYCSRETDYFFDYWGQGTTLTVSS
VL: DIQMTQSPASLSASVGETVTITCGASENIYGALNWYQRKQGKSPQLLIYGATNLADGMSSRFSGSGSGRQYSLKISSLHPDDVATYYCQNVLSTPWTFGGGTKLEIKR
Binding to membrane LIGHT construct as a percentage of the WT binding [1]: 3% | Binding to membrane LIGHT construct as a percentage of the WT binding [2]: 78% | Binding to membrane LIGHT construct as a percentage of the WT binding [3]: 86%
